Sequences and labels used below:
B1: Ssl2 (natural protein, Saccharomyces cerevisiae, UniProt Q00578 1-843, looked up)
chain: MTDVEGYQPKSKGKIFPDMGESFFSSDEDSPATDAEIDENYDDNRETSEGRGERDTGAMVTGLKKPRKKTKSSRHTAADSSMNQMDAKDKALLQDTNSDIPADFVPDSVSGMFRSHDFSYLRLRPDHASRPLWISPSDGRIILESFSPLAEQAQDFLVTIAEPISRPSHIHEYKITAYSLYAAVSVGLETDDIISVLDRLSKVPVAESIINFIKGATISYGKVKLVIKHNRYFVETTQADILQMLLNDSVIGPLRIDSDHQVQPPEDVLQQQLQQTAGKPATNVNPNDVEAVFSAVIGGDNEREEEDDDIDAVHSFEIANESVEVVKKRCQEIDYPVLEEYDFRNDHRNPDLDIDLKPSTQIRPYQEKSLSKMFGNGRARSGIIVLPCGAGKTLVGITAACTIKKSVIVLCTSSVSVMQWRQQFLQWCTLQPENCAVFTSDNKEMFQTESGLVVSTYSMVANTRNRSHDSQKVMDFLTGREWGFIILDEVHVVPAAMFRRVVSTIAAHAKLGLTATLVREDDKIGDLNFLIGPKLYEANWMELSQKGHIANVQCAEVWCPMTAEFYQEYLRETARKRMLLYIMNPTKFQACQFLIQYHERRGDKIIVFSDNVYALQEYALKMGKPFIYGSTPQQERMNILQNFQYNDQINTIFLSKVGDTSIDLPEATCLIQISSHYGSRRQEAQRLGRILRAKRRNDEGFNAFFYSLVSKDTQEMYYSTKRQAFLVDQGYAFKVITHLHGMENIPNLAYASPRERRELLQEVLLKNEEAAGIEVGDDADNSVGRGSNGHKRFKSKAVRGEGSLSGLAGGEDMAYMEYSTNKNKELKEHHPLIRKMYYKNLKK
notes: Ssl2 (XPB homologue), subunit of yeast coreTFIIH; C-Ssl2 549–776, C-terminal region 771–843 as printed; Stood in the assays as part of coreTFIIH; also called yeast homologue of XPB; source: purified from yeast as a subunit of coreTFIIH
B2: Tfb2 (natural protein, yeast, UniProt Q02939 1-513, looked up)
chain: MSDYSLKHSVTQYLEEIPQQVQNRLYTSPATCLAIYRILPPLAKFFIMAMVFNENEVPLLDLDKWVNSNGKLQFQNAIKSMKSLHLLIPNKSSGTLMINLNPTFKISLRNALTGGEVQNSFGVVVEENVVSLDLLDEYSANKWETILHFMVGTPLAKIPSEKVLNLLKHSKLMEEVNSTGEFKITNEGFQFLLQEINSQLWTLLLQYLKMIETSKMDLVDVLHFIFMLGALEVGKAYKIDALSETQRIMLQDMRDYGLVFQKHSNDSIFYPTKLALMLTSDTKTIRSASNAMDSVLRQNREEPSVNEDGANGKSTTDITTSDDLNKAGLKNQDIPDGSLIVETNFKIYSYSNSPLQIAVLSLFVHLKARFVNMVLGQITRESIRRALTNGITADQIIAYLETHAHPQMRRLAEEKLEKKLELDPNCKEPLQVLPPTVVDQIRLWQLELDRVITYEGSLYSDFETSQEYNLLSKYAQDIGVLLWKDDKKKKFFISKEGNSQVLDFAKRKLKKKQ
notes: Tfb2 (p52 homologue), subunit of yeast coreTFIIH; Tfb2C 412–513 as printed; Stood in the assays as part of coreTFIIH; also called yeast homologue of p52; source: purified from yeast as a subunit of coreTFIIH
B3: Ssl1 (natural protein, yeast, UniProt Q04673 1-461, looked up)
chain: MAPVVISESEEDEDRVAITRRTKRQVHFDGEGDDRVDQQQQQHSSSHRDRDKHVQRKKKKRLSNRNLQGSNGGYAWEDEIKRSWDLVKVDDEGDMASLVASIVEARKKRTAKKNITPYQRGIIRSLILTLDCSEAMLEKDLRPNRHAMIIQYAIDFVHEFFDQNPISQMGIIIMRNGLAQLVSQVSGNPQDHIDALKSIRKQEPKGNPSLQNALEMARGLLLPVPAHCTREVLIVFGSLSTTDPGDIHQTIDSLVSEKIRVKVLGLSAQVAICKELCKATNYGDESFYKILLDETHLKELFNEAVTPLPVNKINKGFTLVKMGFPTRIFEDTPTFCSCHSKLVYGGYFCPNCHSKVCSLPTVCPCCDLMLILSTHLARSYHHLMPLKTFAEVPTTEKFRSEDCFSCQSRFPILKNHKNGKLLTSSRYRCEDCKQEFCVDCDVFIHEILHNCPGCESKPVIT
notes: Ssl1 (p44 homologue), subunit of yeast coreTFIIH; Stood in the assays as part of coreTFIIH; also called yeast homologue of p44; source: purified from yeast as a subunit of coreTFIIH

Details in all cases: both partners purified
One test has as its target T1, Rad4–Rad23–Rad33 complex (yeast, UniProt P14736 1-754; P32628 1-398; Q04231 1-177).
T1 construct: Rad4 (XPC homologue), yeast; Rad23 (RAD23B homologue), yeast; Rad33 (CETN2 homologue), yeast; plasmid pETDuet-RAD33; also called Rad4–23–33; yeast homologue of XPC–RAD23B–CETN2; copies: + +
T1 sequence 1: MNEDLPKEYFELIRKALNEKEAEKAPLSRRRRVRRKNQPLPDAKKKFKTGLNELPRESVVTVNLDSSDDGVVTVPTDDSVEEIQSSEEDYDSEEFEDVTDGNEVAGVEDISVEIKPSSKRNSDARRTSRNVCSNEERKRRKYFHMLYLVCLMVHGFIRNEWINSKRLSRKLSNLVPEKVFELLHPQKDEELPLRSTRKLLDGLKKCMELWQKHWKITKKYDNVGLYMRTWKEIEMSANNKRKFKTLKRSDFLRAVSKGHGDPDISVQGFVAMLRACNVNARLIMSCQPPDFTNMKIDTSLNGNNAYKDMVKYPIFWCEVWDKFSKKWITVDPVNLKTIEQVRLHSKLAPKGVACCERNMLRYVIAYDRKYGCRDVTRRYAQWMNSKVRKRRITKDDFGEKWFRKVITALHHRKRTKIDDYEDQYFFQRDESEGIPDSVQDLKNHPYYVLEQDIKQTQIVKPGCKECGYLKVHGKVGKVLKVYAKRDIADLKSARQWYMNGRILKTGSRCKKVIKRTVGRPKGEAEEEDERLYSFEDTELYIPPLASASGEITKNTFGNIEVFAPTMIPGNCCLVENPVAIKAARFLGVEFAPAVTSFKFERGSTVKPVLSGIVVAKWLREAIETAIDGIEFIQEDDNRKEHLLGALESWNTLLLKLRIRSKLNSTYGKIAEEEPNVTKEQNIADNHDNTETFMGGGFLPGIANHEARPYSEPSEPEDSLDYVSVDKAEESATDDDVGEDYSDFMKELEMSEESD
T1 sequence 2: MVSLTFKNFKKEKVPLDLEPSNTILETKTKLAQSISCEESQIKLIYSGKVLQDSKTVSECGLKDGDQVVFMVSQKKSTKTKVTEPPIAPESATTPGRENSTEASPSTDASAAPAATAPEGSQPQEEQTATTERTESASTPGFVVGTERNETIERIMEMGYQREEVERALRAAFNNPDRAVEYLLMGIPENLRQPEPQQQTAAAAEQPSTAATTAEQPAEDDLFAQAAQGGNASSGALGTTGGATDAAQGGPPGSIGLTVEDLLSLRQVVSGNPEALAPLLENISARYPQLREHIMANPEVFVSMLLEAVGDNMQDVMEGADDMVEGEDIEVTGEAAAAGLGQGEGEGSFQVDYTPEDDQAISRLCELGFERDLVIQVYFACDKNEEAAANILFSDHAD
T1 sequence 3: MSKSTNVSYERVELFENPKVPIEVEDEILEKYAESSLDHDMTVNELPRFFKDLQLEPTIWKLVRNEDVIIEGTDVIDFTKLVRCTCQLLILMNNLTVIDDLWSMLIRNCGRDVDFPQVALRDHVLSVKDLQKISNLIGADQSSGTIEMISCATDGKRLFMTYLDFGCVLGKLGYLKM
The test can be described thus: cross-linking; XL-MS: TFIIH/Rad4–Rad23–Rad33 assembled on −24/+24 AAF-DNA, 1 mg/mL in 20 mM HEPES pH 7.6, 300 mM potassium acetate, 5% glycerol, 5 mM DTT; 6 mM DSBU on ice 2 h; MeroX, FDR <1%.

In the test “Ssl2” the target is B1. Put plainly: cryo-EM structure; coreTFIIH and Rad4–Rad23–Rad33 on −24*/+24 AAF-DNA with ATP, glycerol gradient with glutaraldehyde; Map 1 3.86 Å (TFIIH), Map 2 9.2 Å, Map 3 7.9 Å; Rad4, Rad33 and the Tfb1 PH domain placed by rigid-body docking of known structures or homology models.
The target in the next test is T2, Rad3 (yeast, UniProt P06839 1-778).
T2 construct: Rad3 (XPD homologue), subunit of yeast coreTFIIH; Stood in the assays as part of coreTFIIH; also called yeast homologue of XPD; source: purified from yeast as a subunit of coreTFIIH
T2 sequence (looked up): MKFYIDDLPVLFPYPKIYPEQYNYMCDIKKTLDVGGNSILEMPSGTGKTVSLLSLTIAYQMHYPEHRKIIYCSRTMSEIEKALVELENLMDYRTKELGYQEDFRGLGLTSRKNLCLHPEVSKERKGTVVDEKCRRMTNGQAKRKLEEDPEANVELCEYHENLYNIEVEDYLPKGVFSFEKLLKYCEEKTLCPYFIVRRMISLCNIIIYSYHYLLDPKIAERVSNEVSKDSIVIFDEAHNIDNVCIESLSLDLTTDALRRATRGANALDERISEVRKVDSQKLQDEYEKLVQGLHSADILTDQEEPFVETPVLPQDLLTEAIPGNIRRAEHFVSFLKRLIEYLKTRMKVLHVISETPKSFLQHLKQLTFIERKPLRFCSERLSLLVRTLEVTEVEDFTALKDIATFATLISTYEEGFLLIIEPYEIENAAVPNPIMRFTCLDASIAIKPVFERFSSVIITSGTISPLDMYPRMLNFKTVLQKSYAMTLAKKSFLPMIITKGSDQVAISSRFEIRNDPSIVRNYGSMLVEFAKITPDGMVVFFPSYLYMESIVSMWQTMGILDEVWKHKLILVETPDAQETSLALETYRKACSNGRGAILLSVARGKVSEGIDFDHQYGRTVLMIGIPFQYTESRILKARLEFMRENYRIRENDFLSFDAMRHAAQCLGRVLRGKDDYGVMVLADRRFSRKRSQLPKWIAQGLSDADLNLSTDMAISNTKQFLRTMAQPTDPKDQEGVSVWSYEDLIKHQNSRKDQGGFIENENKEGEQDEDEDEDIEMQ
Described as above.

B1: the binding result in the test with Rad4–Rad23–Rad33 complex is on record as “binds”.
In the case of B2, the binding result in the test with Ssl2 is reported as “binds”.
In the case of B3, the binding result with Rad3 is “binds”.

The record behind these values is PMC8184850, “Cryo-EM structure of TFIIH/Rad4–Rad23–Rad33 in damaged DNA opening in nucleotide excision repair” (Nature Communications, 2021).
